According to article PMC4312760:

Assays:
[1] = target: Boxer virus (BV, GI.8) P domain, wild type, as P particle (Boxer virus (human norovirus GI.8)); assay: SEC; gel filtration on Superdex 200 followed by SDS-PAGE; P particles form a peak at 830 kDa
[2] = target: Boxer virus (BV, GI.8) VP1 P domain, Q227-L526 (P dimer) (Boxer virus (human norovirus GI.8)); assay: crystal structure; P protein at 10 mg/mL (native) or 14 mg/mL with Le^b or Le^y tetrasaccharide, hanging drop, 0.1 mol/L LiCl, 18% PEG 3350, 10% MPD, 16°C; space group P6_(1), two protomers in the asymmetric unit

Work on “Boxer virus (BV, GI.8) P domain, wild type, as P particle (domain or fragment)” yielded an efficiency of P particle formation [1] of 80%.

Work on “Boxer virus (BV, GI.8) VP1 P domain, Q227-L526 (P dimer) (domain or fragment)” yielded a stoichiometry N [2] of 2.
